Common to all, as to assay: yeast display titration; KD, yeast
Assay [1] concerns the target Rabbit IgG.
The target in assay [2] is Lysozyme.
For assay [3], the target named is Goat IgG.

As usually defined, the Kd is the constant that tells how readily two partners part at equilibrium. Read a high Kd as a looser complex.

KFWATVHSVHGYFEVPVYAETLDEALELAFGQYGNALGYVTRVRP (designed binder) [Rabbit IgG 3.2.3]: in assay [1], the Kd is 1.5 nM.

In assay [2], KFWATVFSYGNLFEVPVYAETLDEALELAEWQYSGAYEYVTRVRP (designed binder) [Lysozyme A0.3.2] registered a Kd of roughly 1550 nM.

In the case of KFWATVYDYDADYYFEVPVYAETLDEALELAVWRYYSNHSDYLVTRVRP (designed binder) [Goat IgG 2.2.1], in assay [3], the affinity, expressed as Kd, was 0.2 nM.

The values are drawn from patent publication US20160244745A1 (published 2016).
